Measured values as given in publication PMC2900198.

Assays:
[1] = target: Grass carp reovirus (GCRV) turret protein VP1 (grass carp reovirus (GCRV)); experiment: cryo-EM structure
[2] = target: Grass carp reovirus (GCRV) coat protein VP5 (grass carp reovirus (GCRV)); experiment: cryo-EM structure

| Substance | stoichiometry N [1] | stoichiometry N [2] |
| --- | --- | --- |
| Grass carp reovirus (GCRV) turret protein VP1 (natural protein) | 5 |  |
| Grass carp reovirus (GCRV) coat protein VP5 (natural protein) |  | 3 |
